Assay results: patent US20190153112A1 (IMMUTEP S A S, published 2019)
pEC50, pKd: −log10 of the molar value.

Legend:
[1] = target: human LAG-3 protein (Lymphocyte activation gene-3) on the cell surface (human) (UniProt P18627); assay: flow cytometry on CD4+ cells of SEB-stimulated PBMCs (Donor 1); antibody 0 ng/ml (no-antibody background)
[2] = target: IMP321 (recombinant soluble human LAG-3Ig fusion protein) (human) (UniProt P18627); assay: FACS, LAG-3Ig-Alexa 488 (1 µg/ml) pre-incubated with antibody 297 ng/ml, then bound to Raji (MHC class II+) cells
Sequence of IMP321 (recombinant soluble human LAG-3Ig fusion protein) (human) (P18627 23-450): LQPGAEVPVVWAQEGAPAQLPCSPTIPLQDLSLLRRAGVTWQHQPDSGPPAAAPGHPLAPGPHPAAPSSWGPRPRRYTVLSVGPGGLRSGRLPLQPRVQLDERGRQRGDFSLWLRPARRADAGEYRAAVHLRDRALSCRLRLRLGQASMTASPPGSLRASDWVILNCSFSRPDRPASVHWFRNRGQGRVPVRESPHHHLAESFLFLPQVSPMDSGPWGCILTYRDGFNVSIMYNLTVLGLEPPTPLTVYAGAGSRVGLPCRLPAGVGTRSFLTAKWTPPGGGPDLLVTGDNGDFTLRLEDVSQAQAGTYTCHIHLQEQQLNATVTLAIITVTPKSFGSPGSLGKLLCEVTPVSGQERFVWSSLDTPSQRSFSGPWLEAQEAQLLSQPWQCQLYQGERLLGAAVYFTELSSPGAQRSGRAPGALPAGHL

[3] = target: IMP321 (recombinant soluble human LAG-3Ig fusion protein) (human) (UniProt P18627); assay: Biacore, 17B4 antibody on the chip and LAG-3Ig in the running buffer
[4] = target: human LAG-3 protein (Lymphocyte activation gene-3) on the cell surface (human) (UniProt P18627); assay: flow cytometry on LAG-3-expressing CHO cells, from Table 12
[5] = target: human LAG-3 protein (Lymphocyte activation gene-3) on the cell surface (human) (UniProt P18627); assay: flow cytometry on CD4+ cells of SEB-stimulated PBMCs (Donor 1); antibody 126 ng/ml
[6] = target: human LAG-3 protein (Lymphocyte activation gene-3) on the cell surface (human) (UniProt P18627); assay: flow cytometry on CD4+ cells of SEB-stimulated PBMCs (Donor 1); antibody 2326 ng/ml
[7] = target: human LAG-3 protein (Lymphocyte activation gene-3) on the cell surface (human) (UniProt P18627); assay: flow cytometry on CD8+ cells of SEB-stimulated PBMCs (Donor 1), from Table 13
[8] = target: IMP321 (recombinant soluble human LAG-3Ig fusion protein) (human) (UniProt P18627); assay: FACS, LAG-3Ig-Alexa 488 (1 µg/ml) pre-incubated with antibody 89 ng/ml, then bound to Raji (MHC class II+) cells
[9] = target: human LAG-3 protein (Lymphocyte activation gene-3) on the cell surface (human) (UniProt P18627); assay: flow cytometry on CD4+ cells of SEB-stimulated PBMCs (Donor 1); antibody 0.4 ng/ml
[10] = target: human LAG-3 protein (Lymphocyte activation gene-3) on the cell surface (human) (UniProt P18627); assay: flow cytometry on CD8+ cells of SEB-stimulated PBMCs (Donor 1); antibody 1.6 ng/ml
[11] = target: human LAG-3 protein (Lymphocyte activation gene-3) on the cell surface (human) (UniProt P18627); assay: flow cytometry on LAG-3-transfected CHO cells; antibody 500 ng/ml
[12] = target: human LAG-3 protein (Lymphocyte activation gene-3) on the cell surface (human) (UniProt P18627); assay: flow cytometry on LAG-3-transfected CHO cells; antibody 6 ng/ml
[13] = target: human LAG-3 protein (Lymphocyte activation gene-3) on the cell surface (human) (UniProt P18627); assay: flow cytometry on CD4+ cells of SEB-stimulated PBMCs (Donor 1); antibody 29 ng/ml
[14] = target: IMP321 (recombinant soluble human LAG-3Ig fusion protein) (human) (UniProt P18627); assay: FACS, LAG-3Ig-Alexa 488 (1 µg/ml) pre-incubated with antibody 27 ng/ml, then bound to Raji (MHC class II+) cells
[15] = target: human LAG-3 protein (Lymphocyte activation gene-3) on the cell surface (human) (UniProt P18627); assay: flow cytometry on CD8+ cells of SEB-stimulated PBMCs (Donor 1); antibody 7 ng/ml

Sequence of human LAG-3 protein (Lymphocyte activation gene-3) on the cell surface (human) (P18627 other isoform, or with tags, fused parts or gaps): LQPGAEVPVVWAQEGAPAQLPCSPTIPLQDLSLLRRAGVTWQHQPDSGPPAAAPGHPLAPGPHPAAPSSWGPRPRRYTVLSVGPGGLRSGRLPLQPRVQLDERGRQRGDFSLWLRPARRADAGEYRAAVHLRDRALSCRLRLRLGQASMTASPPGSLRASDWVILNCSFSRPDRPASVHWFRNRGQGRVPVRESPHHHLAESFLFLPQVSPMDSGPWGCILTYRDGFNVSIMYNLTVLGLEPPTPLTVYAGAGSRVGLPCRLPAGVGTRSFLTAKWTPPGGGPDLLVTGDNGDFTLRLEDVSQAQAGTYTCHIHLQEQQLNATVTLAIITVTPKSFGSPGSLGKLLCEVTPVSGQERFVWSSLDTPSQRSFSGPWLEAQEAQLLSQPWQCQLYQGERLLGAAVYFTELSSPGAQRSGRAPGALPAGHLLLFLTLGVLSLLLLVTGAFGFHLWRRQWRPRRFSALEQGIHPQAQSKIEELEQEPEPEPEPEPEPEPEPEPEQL

Substance: antagonistic anti-LAG-3 mouse monoclonal antibody 17B4
- MFI [1]: 106 MFI
- MFI of sLAG-3Ig-Alexa 488 [2]: 73 MFI
- Ka [3]: 2.71e+08 M⁻¹
- pKd [3]: 8.43
- koff [3]: 0.000818 s⁻¹
- kon [3]: 222000 M⁻¹ s⁻¹
- pEC50 [4]: 9.15
- MFI [5]: 1240 MFI
- MFI [6]: 1940 MFI
- pEC50 [7]: 9.15
- MFI of sLAG-3Ig-Alexa 488 [8]: 214 MFI
- MFI [9]: 143 MFI
- MFI [10]: 309 MFI
- MFI [11]: 4760 MFI
- MFI [12]: 549 MFI
- MFI [13]: 675 MFI
- MFI of sLAG-3Ig-Alexa 488 [14]: 260 MFI
- MFI [15]: 606 MFI
